Laboratory results from US20190071490A1 (BETH ISRAEL DEACONESS MEDICAL CENTER, published 2019).
Ends that are not written are not given here.

What was measured:
[1] = biological target: antibody G1 Fab fragment; assay: Biacore competition: G1 Fab (50 nM) pre-incubated with competing peptide, flowed over human α-CGRP on SA chip
Source text: (§1) Y axis represents percentage of binding blocked by the presence of the competing peptide compared with the binding in the absence of the competing peptide.
(§2) All these peptides are amidated at the C-terminus.

[2] = biological target: antibody G1 Fab fragment; assay: Biacore competition: G1 Fab (50 nM) pre-incubated 1 h with 10 µM competing peptide, then flowed over N-biotinylated human α-CGRP on SA chip; percent of binding to chip-bound human α-CGRP blocked
Source text: as §1, §2
Target sequence in this assay (VH, as listed by the source, chain 1 of 2): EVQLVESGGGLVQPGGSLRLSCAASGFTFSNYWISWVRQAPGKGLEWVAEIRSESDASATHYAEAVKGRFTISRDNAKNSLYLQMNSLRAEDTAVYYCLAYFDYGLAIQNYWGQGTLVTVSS
Target sequence in this assay (VL, as listed by the source, chain 2 of 2): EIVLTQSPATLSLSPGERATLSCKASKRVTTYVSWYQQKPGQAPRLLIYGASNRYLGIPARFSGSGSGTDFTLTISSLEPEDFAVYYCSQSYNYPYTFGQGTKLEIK

[3] = biological target: antibody G1 Fab fragment; assay: Biacore competition: 50 nM G1 Fab with 10 µM peptide over human α-CGRP on chip
Source text: as §1, §2
Target sequence in this assay (VH, as listed by the source, chain 1 of 2): as the sequence (VH, as listed by the source, chain 1 of 2) above
Target sequence in this assay (VL, as listed by the source, chain 2 of 2): as the sequence (VL, as listed by the source, chain 2 of 2) above

B1: human α-CGRP 19-36 (peptide)
peptide: SGGVVKNNFVPTNVGSKA-OH
notes: also called 19-36-COOH; peptide fragment 19-36
[1]
  binding result: no binding (tested: 10 µM)
[2]
  % Binding Blocked: 0.6%

B2: human α-CGRP 1-36-COOH (peptide)
peptide: ACDTATCVTHRLAGLLSRSGGVVKNNFVPTNVGSKA-OH
modifications: ends and bridges not checked
notes: also called 1-36 (not amidated at the C-terminus)
[3]
  percentage of binding blocked: ~40%
[2]
  % Binding Blocked: 40.6%

## SGGVVKNNFVPTNVGSAAF-NH2 (also: N-terminal biotin when on the chip, the entry already carries K35A) [human α-CGRP K35A (19-37)]
[3]
  percentage of binding blocked: 100%
[2]
  % Binding Blocked: 100%

## SGGVVKNNFVATNVGSKAF-NH2 (the entry already carries P29A) [human α-CGRP P29A (19-37)]
[3]
  percentage of binding blocked: 100%
[2]
  % Binding Blocked: 100%

## SGGVVKNNFVPTNVGSEAF-NH2 (also: N-terminal biotin when on the chip, the entry already carries K35E) [human α-CGRP K35E (19-37)]
[3]
  percentage of binding blocked: 100%
[2]
  % Binding Blocked: 100%

## SGGVVKNNFVPTNVGSMAF-NH2 (also: N-terminal biotin when on the chip, the entry already carries K35M) [human α-CGRP K35M (19-37)]
[3]
  percentage of binding blocked: 100%
[2]
  % Binding Blocked: 100%

B3: rat α-CGRP (1-37) (peptide)
peptide: SCNTATCVTHRLAGLLSRSGGVVKDNFVPTNVGSEAF-NH2
modifications: ends and bridges not checked; also: N-terminal biotin when captured on the SA chip
notes: also called rat α (1-37); α-rat
[3]
  percentage of binding blocked: 100%
[2]
  % Binding Blocked: 100%
